The source of these data is the supplement of paper PMC9112550, “Optimization of the antimicrobial peptide Bac7 by deep mutational scanning” (BMC Biology, 2022).

The data set concerns Escherichia coli TOP10. Put plainly: shrunken log2 fold change of peptide-encoding DNA abundance (4.5 h post-induction vs induction); higher = less antimicrobial activity (less host growth inhibition). As to conditions: time post-induction: 4.5 h; library: site-saturation at positions 5, 18, 19, 20.
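Also: peptides expressed intracellularly from a pBAD plasmid library in pooled LB shake-flask culture, induced with 0.3% L-arabinose, DNA abundance read by NGS, three biological replicates, DESeq2 with apeglm shrinkage.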

Consider RRIRLRPPRLPRPRPRPDLHPRP, for which the “shrunken log2 fold change” value was -0.0386.

Regarding RRIRYRPPRLPRPRPRPNADPRP, the “shrunken log2 fold change” value was -0.0823. The value for RRIRWRPPRLPRPRPRPNSRPRP was 0.0524. The same measure for RRIRYRPPRLPRPRPRPSAWPRP: 0.199; for RRIRDRPPRLPRPRPRPADVPRP: 0.384; for RRIRRRPPRLPRPRPRPNGSPRP: 0.183. For the sequence RRIRFRPPRLPRPRPRPMWEPRP, the “shrunken log2 fold change” value is -0.232. The value for RRIRNRPPRLPRPRPRPQCAPRP was -0.0727; that for RRIRGRPPRLPRPRPRPGNDPRP was 0.381; that for RRIRWRPPRLPRPRPRPQVPPRP was -0.211. The value for RRIRHRPPRLPRPRPRPHGLPRP was 0.15; that for RRIRERPPRLPRPRPRPTSKPRP was -0.426. The same measure for RRIRHRPPRLPRPRPRPYNDPRP: -0.0648. As for RRIRQRPPRLPRPRPRPWARPRP, the “shrunken log2 fold change” value was -0.0405. The value for RRIRARPPRLPRPRPRPENDPRP was 0.085. The value for RRIRQRPPRLPRPRPRPMKHPRP was -0.373; that for RRIRRRPPRLPRPRPRPPCCPRP was 0.623. RRIRHRPPRLPRPRPRPQAFPRP: the “shrunken log2 fold change” value is -0.0247. Consider RRIRFRPPRLPRPRPRPEPDPRP, for which the “shrunken log2 fold change” value is -0.0658. Consider RRIRIRPPRLPRPRPRPIRKPRP, for which the “shrunken log2 fold change” value is -0.0303. On to RRIRIRPPRLPRPRPRPWYQPRP, for which the “shrunken log2 fold change” value came to 0.00187. For RRIRIRPPRLPRPRPRPWFIPRP, the “shrunken log2 fold change” value was -0.243.

In the case of RRIRLRPPRLPRPRPRPGGCPRP, the “shrunken log2 fold change” value came to 0.177. The same measure for RRIRQRPPRLPRPRPRPYRRPRP: 0.0231; for RRIRTRPPRLPRPRPRPSCKPRP: -0.885. The same measure for RRIRARPPRLPRPRPRPYNEPRP: -0.524.

As for RRIRNRPPRLPRPRPRPFDCPRP, the “shrunken log2 fold change” value was 0.0101. The same measure for RRIRARPPRLPRPRPRPDQMPRP: 0.386.

RRIRCRPPRLPRPRPRPPYTPRP: the “shrunken log2 fold change” value is -0.343. The value for RRIRCRPPRLPRPRPRPYTDPRP was -0.431.

RRIRNRPPRLPRPRPRPPVLPRP: the “shrunken log2 fold change” value was 0.124.

Take RRIRFRPPRLPRPRPRPYRYPRP: the “shrunken log2 fold change” value is 0.0548. The same measure for RRIRDRPPRLPRPRPRPCMHPRP: 0.175; for RRIRCRPPRLPRPRPRPRFYPRP: -0.234. Consider RRIRTRPPRLPRPRPRPIHCPRP, for which the “shrunken log2 fold change” value was -0.172.

Consider RRIRNRPPRLPRPRPRPVNTPRP, for which the “shrunken log2 fold change” value was -0.0908. As for RRIRCRPPRLPRPRPRPNVNPRP, the “shrunken log2 fold change” value was -0.461. The value for RRIRCRPPRLPRPRPRPLKTPRP was -0.0197; that for RRIRDRPPRLPRPRPRPQAKPRP was -0.0241; that for RRIRIRPPRLPRPRPRPITFPRP was -1.1. The value for RRIRFRPPRLPRPRPRPTPNPRP was 0.296; that for RRIRNRPPRLPRPRPRPDLEPRP was 0.124. The same measure for RRIRIRPPRLPRPRPRPALAPRP: 0.202; for RRIRNRPPRLPRPRPRPNWSPRP: -0.106. Regarding RRIRHRPPRLPRPRPRPFQFPRP, the “shrunken log2 fold change” value worked out at 0.0952. The value for RRIRERPPRLPRPRPRPYHDPRP was -0.114.

Regarding RRIRNRPPRLPRPRPRPKKFPRP, the “shrunken log2 fold change” value is -0.0756. The same measure for RRIRRRPPRLPRPRPRPCISPRP: -0.0399; for RRIRWRPPRLPRPRPRPSQMPRP: -0.681; for RRIRIRPPRLPRPRPRPNAEPRP: -0.151. The same measure for RRIRRRPPRLPRPRPRPLGWPRP: 1.07; for RRIRCRPPRLPRPRPRPGNPPRP: -0.132; for RRIRHRPPRLPRPRPRPASSPRP: 0.0164. The value for RRIRVRPPRLPRPRPRPMAKPRP was 0.0605; that for RRIRPRPPRLPRPRPRPPDAPRP was 0.553; that for RRIRKRPPRLPRPRPRPRLYPRP was 0.0187. Take RRIRPRPPRLPRPRPRPYQNPRP: the “shrunken log2 fold change” value was -0.339. The same measure for RRIRQRPPRLPRPRPRPHELPRP: -0.00752; for RRIRCRPPRLPRPRPRPNIFPRP: -0.432. The value for RRIRHRPPRLPRPRPRPLGSPRP was 0.0703; that for RRIRERPPRLPRPRPRPEGEPRP was 0.332. The value for RRIRPRPPRLPRPRPRPEYCPRP was -0.146; that for RRIRIRPPRLPRPRPRPCPPPRP was -0.328.

Regarding RRIRGRPPRLPRPRPRPNYMPRP, the “shrunken log2 fold change” value was -0.0439. The same measure for RRIRRRPPRLPRPRPRPNYRPRP: 0.0832. With RRIRPRPPRLPRPRPRPTHWPRP, the “shrunken log2 fold change” value is 0.484. Take RRIRYRPPRLPRPRPRPCTTPRP: the “shrunken log2 fold change” value was -0.256. The same measure for RRIRERPPRLPRPRPRPAQLPRP: -0.124. Regarding RRIRCRPPRLPRPRPRPQCFPRP, the “shrunken log2 fold change” value is -0.187. For RRIRLRPPRLPRPRPRPKSRPRP, the “shrunken log2 fold change” value is -0.176. The value for RRIRMRPPRLPRPRPRPQGGPRP was 0.631; that for RRIRVRPPRLPRPRPRPWPKPRP was 0.0246; that for RRIRMRPPRLPRPRPRPPLEPRP was 0.873. The same measure for RRIRSRPPRLPRPRPRPMLRPRP: 0.123. The value for RRIRARPPRLPRPRPRPDRCPRP was 0.285; that for RRIRDRPPRLPRPRPRPDTQPRP was 0.419; that for RRIRMRPPRLPRPRPRPIIVPRP was -0.0119. Take RRIRMRPPRLPRPRPRPAGDPRP: the “shrunken log2 fold change” value was found to be 0.882.

As for RRIRARPPRLPRPRPRPNFNPRP, the “shrunken log2 fold change” value was -0.0686. The same measure for RRIRERPPRLPRPRPRPQHFPRP: 0.131. For the sequence RRIRQRPPRLPRPRPRPEPIPRP, the “shrunken log2 fold change” value worked out at 0.047.

For RRIRTRPPRLPRPRPRPNEHPRP, the “shrunken log2 fold change” value was -0.198. The same measure for RRIRCRPPRLPRPRPRPCSFPRP: -0.57; for RRIRKRPPRLPRPRPRPDYVPRP: -0.0105; for RRIRERPPRLPRPRPRPKCRPRP: -0.0625.

On to RRIRFRPPRLPRPRPRPQLLPRP, for which the “shrunken log2 fold change” value was found to be 0.0217.

On to RRIRERPPRLPRPRPRPAWCPRP, for which the “shrunken log2 fold change” value was found to be 0.238.

Take RRIRHRPPRLPRPRPRPSKTPRP: the “shrunken log2 fold change” value is -0.24. The value for RRIRTRPPRLPRPRPRPFCWPRP was -0.0403; that for RRIRKRPPRLPRPRPRPARCPRP was 0.782; that for RRIRHRPPRLPRPRPRPIPRPRP was -0.0447. The same measure for RRIRWRPPRLPRPRPRPPPNPRP: 0.928; for RRIRPRPPRLPRPRPRPPMHPRP: 0.359. Take RRIRERPPRLPRPRPRPFRAPRP: the “shrunken log2 fold change” value is 0.0204. As to RRIRLRPPRLPRPRPRPVISPRP, the “shrunken log2 fold change” value is -0.266. The same measure for RRIRARPPRLPRPRPRPKWAPRP: 0.688; for RRIRRRPPRLPRPRPRPCMGPRP: -0.1; for RRIRMRPPRLPRPRPRPPVTPRP: 0.673. The value for RRIRWRPPRLPRPRPRPELVPRP was 0.605.

Consider RRIRNRPPRLPRPRPRPAKRPRP, for which the “shrunken log2 fold change” value turned out to be 0.27. The value for RRIRARPPRLPRPRPRPVNIPRP was -0.123; that for RRIRRRPPRLPRPRPRPVTKPRP was 0.28. The value for RRIRLRPPRLPRPRPRPVMWPRP was 0.283; that for RRIRQRPPRLPRPRPRPAVIPRP was 0.135. With RRIRFRPPRLPRPRPRPYWFPRP, the “shrunken log2 fold change” value is -0.0527. The same measure for RRIRWRPPRLPRPRPRPYDMPRP: 0.0118.

Consider RRIRNRPPRLPRPRPRPMRDPRP, for which the “shrunken log2 fold change” value is -0.00169.

As for RRIRYRPPRLPRPRPRPFRPPRP, the “shrunken log2 fold change” value is -0.0325. The value for RRIRDRPPRLPRPRPRPAWVPRP was 0.103. The value for RRIRQRPPRLPRPRPRPVGQPRP was 0.0327. The value for RRIRMRPPRLPRPRPRPVYPPRP was 0.166; that for RRIRMRPPRLPRPRPRPWCGPRP was 0.134; that for RRIRQRPPRLPRPRPRPSVRPRP was -0.309.

For the sequence RRIRQRPPRLPRPRPRPQVIPRP, the “shrunken log2 fold change” value was -0.0697. The value for RRIRMRPPRLPRPRPRPWRMPRP was 0.0682; that for RRIRGRPPRLPRPRPRPIIQPRP was 0.203. The value for RRIRARPPRLPRPRPRPEPKPRP was 1.36; that for RRIRPRPPRLPRPRPRPEFLPRP was -0.101.

As to RRIRHRPPRLPRPRPRPCLAPRP, the “shrunken log2 fold change” value was -0.0627. The same measure for RRIRARPPRLPRPRPRPRGEPRP: 0.613; for RRIRCRPPRLPRPRPRPQDAPRP: 0.0575. In the case of RRIRQRPPRLPRPRPRPLWPPRP, the “shrunken log2 fold change” value is 0.227.

Consider RRIRSRPPRLPRPRPRPSVIPRP, for which the “shrunken log2 fold change” value is -0.602.

With RRIRPRPPRLPRPRPRPPHSPRP, the “shrunken log2 fold change” value came out at 1.31. The value for RRIRGRPPRLPRPRPRPTYCPRP was 0.309.
